T1: murine IL-38 (mouse, UniProt Q8R459 1-152, limits assumed, C-terminally-biotinylated form)
T1 construct: Bacterially expressed in a C-terminally-biotinylated form and used as the antigen for phage selection; also called mouse IL-38; IL1F10
T1 sequence (looked up): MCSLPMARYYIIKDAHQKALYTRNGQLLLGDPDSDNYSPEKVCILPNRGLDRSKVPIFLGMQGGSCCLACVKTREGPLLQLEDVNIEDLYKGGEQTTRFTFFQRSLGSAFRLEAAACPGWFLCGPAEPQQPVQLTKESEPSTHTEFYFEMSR


Target: T1, murine IL-38
Test: biolayer interferometry, fitted sensorgrams (association to about 600 s, dissociation to 1800 s); concentrations of the traces not given

Row | Kd [nM] | Binder
1 | 6.7 | Fab E04 (Fab, V domains shown, the constant domains of the Fab are not) VH: EVQLVESGGGLVQPGGSLRLSCAASGFSFSSSSIHWVRQAPGKGLEWVASISPYYSYTSYADSVKGRFTISADTSKNTAYLQMNSLRAEDTAVYYCARTVRGSKKPYFSGWAMDYWGQGTLVTVSS VL: DIQMTQSPSSLSASVGDRVTITCRASQSYYSYVAWYQQKPGKAPKLLIYSASSLYSGVPSRFSGSRSGTDFTLTISSLQPEDFATYYCQQVFAPITFGQGTKVEIK
2 | 69 | Fab H06 (Fab, V domains shown, the constant domains of the Fab are not) VH: EVQLVESGGGLVQPGGSLRLSCAASGFSLSYSYIHWVRQAPGKGLEWVASISPSYSYTSYADSVKGRFTISADTSKNTAYLQMNSLRAEDTAVYYCARAPVPHVWPYSGFDYWGQGTLVTVSS VL: DIQMTQSPSSLSASVGDRVTITCRASQSVSSAVAWYQQKPGKAPKLLIYSASSLYSGVPSRFSGSRSGTDFTLTISSLQPEDFATYYCQQAYWSPITFGQGTKVEIK

Reference: patent publication US20200165334A1 (FRAUNHOFER GESELLSCHAFT ZUR F RDERUNG DER ANGEWANDTEN …, published 2020)
